Numbered stars: 1 amine (or outer) side, 2 acyl side, 3 side chain; on linkers, the order of the positions; unused ones are H or OH. Bridge positions count the residues as written; N and C are the ends. Side chains are listed from the residue outwards. Ends that are not written are not given here. * marks the point of attachment. C20 diacid = O=C(O)CCCCCCCCCCCCCCCCCCC(=O)*; γGlu = O=C(O)[C@H](CCC(=O)[*:2])N[*:1]; AEEA = NCCOCCOCC(=O)O
T1: human amylin receptor (human, UniProt P30988 25-474; O60896 24-148, limits assumed)
T1 construct: whole, on cells; Calcitonin receptor plus RAMP-3 gives the amylin 3(a) receptor; membranes of Amylin 3(a)/CRE-luc cells were used; also called hAmylin-R; hAmylinR
T1 sequence (looked up) 1: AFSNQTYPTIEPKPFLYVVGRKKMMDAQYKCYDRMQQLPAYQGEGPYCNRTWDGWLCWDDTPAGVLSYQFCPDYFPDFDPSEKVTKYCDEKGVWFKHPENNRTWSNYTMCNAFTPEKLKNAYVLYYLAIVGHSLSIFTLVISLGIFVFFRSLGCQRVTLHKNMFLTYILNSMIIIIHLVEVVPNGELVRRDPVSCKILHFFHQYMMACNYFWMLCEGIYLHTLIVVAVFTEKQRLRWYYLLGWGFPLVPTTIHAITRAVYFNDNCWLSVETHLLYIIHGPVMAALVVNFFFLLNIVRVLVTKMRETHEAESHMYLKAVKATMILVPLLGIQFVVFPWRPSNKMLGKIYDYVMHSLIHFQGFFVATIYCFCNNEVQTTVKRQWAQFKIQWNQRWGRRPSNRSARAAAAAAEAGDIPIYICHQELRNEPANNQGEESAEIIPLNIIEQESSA
T1 sequence (looked up) 2: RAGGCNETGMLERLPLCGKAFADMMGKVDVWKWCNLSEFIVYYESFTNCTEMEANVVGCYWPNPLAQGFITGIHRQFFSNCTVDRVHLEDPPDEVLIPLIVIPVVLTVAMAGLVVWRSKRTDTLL


Biological target: T1, human amylin receptor
Test: SPA competition binding, displacement of 125I-rat amylin from membranes with human amylin 3(a) receptor (Assay V)
Procedure, shortened: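 SPA beads + BHK amylin 3(a)/CRE-luc membranes, 35 ng/μL final; buffer 50 mM Hepes pH 7.4, 1 mM CaCl2, 5 mM MgCl₂, 0.1% OA, 0.02% Tween20. 120 min, 25° C, shaken; scintillation count. IC₅₀ by one-site binding competition fit, taken as receptor affinity.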

| IC50 [nM] | Binder |
| --- | --- |
| 0.042 | K([AEEA-γGlu-C20 diacid])CNTATCATQRLANFLRHSSPNFGAIPPSTNVGPNTY-NH2 (disulfide 2-7; N-terminus assumed; SMILES CC[C@H](C)[C@H](NC(=O)[C@H](C)NC(=O)CNC(=O)[C@H](Cc1ccccc1)NC(=O)[C@H](CC(N)=O)NC(=O)[C@@H]1CCCN1C(=O)[C@H](CO)NC(=O)[C@H](CO)NC(=O)[C@H](Cc1c[nH]cn1)NC(=O)[C@H](CCCNC(=N)N)NC(=O)[C@H](CC(C)C)NC(=O)[C@H](Cc1ccccc1)NC(=O)[C@H](CC(N)=O)NC(=O)[C@H](C)NC(=O)[C@H](CC(C)C)NC(=O)[C@H](CCCNC(=N)N)NC(=O)[C@H](CCC(N)=O)NC(=O)[C@@H](NC(=O)[C@H](C)NC(=O)[C@@H]1CSSC[C@H](NC(=O)[C@@H](N)CCCCNC(=O)COCCOCCNC(=O)CC[C@H](NC(=O)CCCCCCCCCCCCCCCCCCC(=O)O)C(=O)O)C(=O)N[C@@H](CC(N)=O)C(=O)N[C@@H]([C@@H](C)O)C(=O)N[C@@H](C)C(=O)N[C@@H]([C@@H](C)O)C(=O)N1)[C@@H](C)O)C(=O)N1CCC[C@H]1C(=O)N1CCC[C@H]1C(=O)N[C@@H](CO)C(=O)N[C@H](C(=O)N[C@@H](CC(N)=O)C(=O)N[C@H](C(=O)NCC(=O)N1CCC[C@H]1C(=O)N[C@@H](CC(N)=O)C(=O)N[C@H](C(=O)N[C@@H](Cc1ccc(O)cc1)C(N)=O)[C@@H](C)O)C(C)C)[C@@H](C)O, also called 17R, 21P, 27P, 28P, 34P) |
| 0.049 | K([AEEA-γGlu-C20 diacid])CNTATCATQRLANFLRHSSPNFGAIPSPTNVGPNTY-NH2 (disulfide 2-7; N-terminus assumed; SMILES CC[C@H](C)[C@H](NC(=O)[C@H](C)NC(=O)CNC(=O)[C@H](Cc1ccccc1)NC(=O)[C@H](CC(N)=O)NC(=O)[C@@H]1CCCN1C(=O)[C@H](CO)NC(=O)[C@H](CO)NC(=O)[C@H](Cc1c[nH]cn1)NC(=O)[C@H](CCCNC(=N)N)NC(=O)[C@H](CC(C)C)NC(=O)[C@H](Cc1ccccc1)NC(=O)[C@H](CC(N)=O)NC(=O)[C@H](C)NC(=O)[C@H](CC(C)C)NC(=O)[C@H](CCCNC(=N)N)NC(=O)[C@H](CCC(N)=O)NC(=O)[C@@H](NC(=O)[C@H](C)NC(=O)[C@@H]1CSSC[C@H](NC(=O)[C@@H](N)CCCCNC(=O)COCCOCCNC(=O)CC[C@H](NC(=O)CCCCCCCCCCCCCCCCCCC(=O)O)C(=O)O)C(=O)N[C@@H](CC(N)=O)C(=O)N[C@@H]([C@@H](C)O)C(=O)N[C@@H](C)C(=O)N[C@@H]([C@@H](C)O)C(=O)N1)[C@@H](C)O)C(=O)N1CCC[C@H]1C(=O)N[C@@H](CO)C(=O)N1CCC[C@H]1C(=O)N[C@H](C(=O)N[C@@H](CC(N)=O)C(=O)N[C@H](C(=O)NCC(=O)N1CCC[C@H]1C(=O)N[C@@H](CC(N)=O)C(=O)N[C@H](C(=O)N[C@@H](Cc1ccc(O)cc1)C(N)=O)[C@@H](C)O)C(C)C)[C@@H](C)O, also called 17R, 21P, 27P, 29P, 34P) |
| 0.115 | K([AEEA-γGlu-C20 diacid])CNTATCATQRLANFLRHSSPNFGAIPSSTPVGSHTY-NH2 (disulfide 2-7; N-terminus assumed; SMILES CC[C@H](C)[C@H](NC(=O)[C@H](C)NC(=O)CNC(=O)[C@H](Cc1ccccc1)NC(=O)[C@H](CC(N)=O)NC(=O)[C@@H]1CCCN1C(=O)[C@H](CO)NC(=O)[C@H](CO)NC(=O)[C@H](Cc1c[nH]cn1)NC(=O)[C@H](CCCNC(=N)N)NC(=O)[C@H](CC(C)C)NC(=O)[C@H](Cc1ccccc1)NC(=O)[C@H](CC(N)=O)NC(=O)[C@H](C)NC(=O)[C@H](CC(C)C)NC(=O)[C@H](CCCNC(=N)N)NC(=O)[C@H](CCC(N)=O)NC(=O)[C@@H](NC(=O)[C@H](C)NC(=O)[C@@H]1CSSC[C@H](NC(=O)[C@@H](N)CCCCNC(=O)COCCOCCNC(=O)CC[C@H](NC(=O)CCCCCCCCCCCCCCCCCCC(=O)O)C(=O)O)C(=O)N[C@@H](CC(N)=O)C(=O)N[C@@H]([C@@H](C)O)C(=O)N[C@@H](C)C(=O)N[C@@H]([C@@H](C)O)C(=O)N1)[C@@H](C)O)C(=O)N1CCC[C@H]1C(=O)N[C@@H](CO)C(=O)N[C@@H](CO)C(=O)N[C@H](C(=O)N1CCC[C@H]1C(=O)N[C@H](C(=O)NCC(=O)N[C@@H](CO)C(=O)N[C@@H](Cc1c[nH]cn1)C(=O)N[C@H](C(=O)N[C@@H](Cc1ccc(O)cc1)C(N)=O)[C@@H](C)O)C(C)C)[C@@H](C)O, also called 17R, 21P, 27P, 31P, 35H) |
| 0.038 | K([AEEA-γGlu-C20 diacid])CNTATCATQRLANFLRHSSPNFGAIPSSTNVGPNTY-NH2 (disulfide 2-7; N-terminus assumed; SMILES CC[C@H](C)[C@H](NC(=O)[C@H](C)NC(=O)CNC(=O)[C@H](Cc1ccccc1)NC(=O)[C@H](CC(N)=O)NC(=O)[C@@H]1CCCN1C(=O)[C@H](CO)NC(=O)[C@H](CO)NC(=O)[C@H](Cc1c[nH]cn1)NC(=O)[C@H](CCCNC(=N)N)NC(=O)[C@H](CC(C)C)NC(=O)[C@H](Cc1ccccc1)NC(=O)[C@H](CC(N)=O)NC(=O)[C@H](C)NC(=O)[C@H](CC(C)C)NC(=O)[C@H](CCCNC(=N)N)NC(=O)[C@H](CCC(N)=O)NC(=O)[C@@H](NC(=O)[C@H](C)NC(=O)[C@@H]1CSSC[C@H](NC(=O)[C@@H](N)CCCCNC(=O)COCCOCCNC(=O)CC[C@H](NC(=O)CCCCCCCCCCCCCCCCCCC(=O)O)C(=O)O)C(=O)N[C@@H](CC(N)=O)C(=O)N[C@@H]([C@@H](C)O)C(=O)N[C@@H](C)C(=O)N[C@@H]([C@@H](C)O)C(=O)N1)[C@@H](C)O)C(=O)N1CCC[C@H]1C(=O)N[C@@H](CO)C(=O)N[C@@H](CO)C(=O)N[C@H](C(=O)N[C@@H](CC(N)=O)C(=O)N[C@H](C(=O)NCC(=O)N1CCC[C@H]1C(=O)N[C@@H](CC(N)=O)C(=O)N[C@H](C(=O)N[C@@H](Cc1ccc(O)cc1)C(N)=O)[C@@H](C)O)C(C)C)[C@@H](C)O, also called 17R, 21P, 27P, 34P) |
| 0.03 | K([AEEA-γGlu-C20 diacid])CNTATCATQRLANFLRHSSPNFGAIPSPTPVGSNTY-NH2 (disulfide 2-7; N-terminus assumed; SMILES CC[C@H](C)[C@H](NC(=O)[C@H](C)NC(=O)CNC(=O)[C@H](Cc1ccccc1)NC(=O)[C@H](CC(N)=O)NC(=O)[C@@H]1CCCN1C(=O)[C@H](CO)NC(=O)[C@H](CO)NC(=O)[C@H](Cc1c[nH]cn1)NC(=O)[C@H](CCCNC(=N)N)NC(=O)[C@H](CC(C)C)NC(=O)[C@H](Cc1ccccc1)NC(=O)[C@H](CC(N)=O)NC(=O)[C@H](C)NC(=O)[C@H](CC(C)C)NC(=O)[C@H](CCCNC(=N)N)NC(=O)[C@H](CCC(N)=O)NC(=O)[C@@H](NC(=O)[C@H](C)NC(=O)[C@@H]1CSSC[C@H](NC(=O)[C@@H](N)CCCCNC(=O)COCCOCCNC(=O)CC[C@H](NC(=O)CCCCCCCCCCCCCCCCCCC(=O)O)C(=O)O)C(=O)N[C@@H](CC(N)=O)C(=O)N[C@@H]([C@@H](C)O)C(=O)N[C@@H](C)C(=O)N[C@@H]([C@@H](C)O)C(=O)N1)[C@@H](C)O)C(=O)N1CCC[C@H]1C(=O)N[C@@H](CO)C(=O)N1CCC[C@H]1C(=O)N[C@H](C(=O)N1CCC[C@H]1C(=O)N[C@H](C(=O)NCC(=O)N[C@@H](CO)C(=O)N[C@@H](CC(N)=O)C(=O)N[C@H](C(=O)N[C@@H](Cc1ccc(O)cc1)C(N)=O)[C@@H](C)O)C(C)C)[C@@H](C)O, also called 17R, 21P, 27P, 29P, 31P) |
| 0.088 | K([AEEA-γGlu-C20 diacid])CNTATCATQRLANFLRHSSPNFGAIPSSTNVGPHTY-NH2 (disulfide 2-7; N-terminus assumed; SMILES CC[C@H](C)[C@H](NC(=O)[C@H](C)NC(=O)CNC(=O)[C@H](Cc1ccccc1)NC(=O)[C@H](CC(N)=O)NC(=O)[C@@H]1CCCN1C(=O)[C@H](CO)NC(=O)[C@H](CO)NC(=O)[C@H](Cc1c[nH]cn1)NC(=O)[C@H](CCCNC(=N)N)NC(=O)[C@H](CC(C)C)NC(=O)[C@H](Cc1ccccc1)NC(=O)[C@H](CC(N)=O)NC(=O)[C@H](C)NC(=O)[C@H](CC(C)C)NC(=O)[C@H](CCCNC(=N)N)NC(=O)[C@H](CCC(N)=O)NC(=O)[C@@H](NC(=O)[C@H](C)NC(=O)[C@@H]1CSSC[C@H](NC(=O)[C@@H](N)CCCCNC(=O)COCCOCCNC(=O)CC[C@H](NC(=O)CCCCCCCCCCCCCCCCCCC(=O)O)C(=O)O)C(=O)N[C@@H](CC(N)=O)C(=O)N[C@@H]([C@@H](C)O)C(=O)N[C@@H](C)C(=O)N[C@@H]([C@@H](C)O)C(=O)N1)[C@@H](C)O)C(=O)N1CCC[C@H]1C(=O)N[C@@H](CO)C(=O)N[C@@H](CO)C(=O)N[C@H](C(=O)N[C@@H](CC(N)=O)C(=O)N[C@H](C(=O)NCC(=O)N1CCC[C@H]1C(=O)N[C@@H](Cc1c[nH]cn1)C(=O)N[C@H](C(=O)N[C@@H](Cc1ccc(O)cc1)C(N)=O)[C@@H](C)O)C(C)C)[C@@H](C)O, also called 17R, 21P, 27P, 34P, 35H) |
